Reference: the DeepSol protein solubility set

assay: soluble on expression in E. coli; label from the status in PepcDB or PDB records

Sequence	soluble on expression in E. coli
MGSDKIHHHHHHMYYLSFSISSNCGLSAAAEHLQNKIVTLNVINSTDFNTVIAFTLARDIDAMRNDFAKDFKTVYIARGKKAAFINGTKISHGIVPAMISEQIIPLYPIFAENGSEWFNAIVLEKEHIDNFVALIEKKNNIETLDYERIRNGDSMFSIIKNANRGIFTLELTETERRIVNSSLRQGFFSWPRSYDLTSISREFGLTKPTILYHIRNAERKVMEALFGS	not soluble
DIGCYTLGINKPLEGVDITICMGASVGVSNGLAHVLNNKIIATIGDSTFIHAGIPPLINAVYNHADFVLVILDNSTTGMTGHQPHPGTGFRGCGEAGKAVRIEDIVRGCGVEFVEVVNPYNVRKMVDVLRRALNHDGVAVVIARQPCAILWSRARRREGKIVTYKVTEDC	not soluble
MAHHHHHHMLRRLVSCASPLRLRGCGAAVVLGNGRFASTANASAAPPITTTKAPTYGTVPDIPNLNFLSSPDNLLNTVDGTVDVCEALLKEIPKAKTPQAKHDLIDSTSNVLCLLLDPCEFVRQIHPDENYKRGASLAFQKGYEYMCEVNSRRDLYDVIKELDSQEGRKGLTPESSRTLCS	not soluble
MPSFDIVSEITLHEVRNAVENANRVLSTRYDFRGVEAVIELNEKNETIKITTESDFQLEQLIEILIGSCIKRGIEHSSLDIPAESEHHGKLYSKEIKLKQGIETEMAKKITKLVKDSKIKVQTQIQGEQVRVTGKSRDDLQAVIQLVKSAELGQPFQFNNFRD	soluble
LPRELRPLMKKPLGILYRGKGRDTIEKFAGELSSPTKLISVGDVTTFHLLEAGIIPDICIVDDRTKRKPVSSDVSVRNRDKVYEEVSVDNPAGIITDELIRTLCEAFASEKLLRIFVRGEEDLATLPVILLAPPGSVVLYGQPDEGVVFVEVTEKKKEEIRALFEKLISK	not soluble
MRKVPIITADEAAKLIKDGDTVTTSGFVGNAIPEALDRAVEKRFLETGEPKNITYVYCGSQGNRDGRGAEHFAHEGLLKRYIAGHWATVPALGKMAMENKMEAYNVSQGALCHLFRDIASHKPGVFTKVGIGTFIDPRNGGGKVNDITKEDIVELVEIKGQEYLFYPAFPIHVALIRGTYADESGNITFEKEVAPLEGTSVCQAVKNSGGIVVVQVERVVKAGTLDPRHVKVPGIYVDYVVVADPEDHQQSLDCEYDPALSGEHRRPEVVGEPLPLSAKKVIGRRGAIELEKDVAVNLGVGAPEYVASVADEEGIVDFMTLTAESGAIGGVPAGGVRFGASYNADALIDQGYQFDYYDGGGLDLCYLGLAECDEKGNINVSRFGPRIAGCGGFINITQNTPKVFFCGTFTAGGLKVKIEDGKVIIVQEGKQKKFLKAVEQITFNGDVALANKQQVTYITERCVFLLKEDGLHLSEIAPGIDLQTQILDVMDFAPIIDRDANGQIKLMDAALFAEGLMGLKEMKS	soluble
MSLTGKKIETHLEDMVAQANAQLKLTAPESNLEVSYQNYHRGVFSSQLQLLVKPIAGKENPWIKSGQSVIFNESVDHGPFPLAQLKKLNLIPSMASIQTTLVNNEVSKPLFDMAKGETPFEINSRIGYSGDSSSDISLKPLNYEQKDEKVAFSGGEFQLNADRDAKPSPFPGRRKVVRIDAVNEYNQKVQLTFNNLKTDGSSTLASFGERVGNQKLSLEKMTISVEGKELALLEGMEISGKSDLVNDGKTINSQLDYSLNSLKVQNQDLGSGKLTLKVGQIDGEAWHQFSQQYNAQTQALSRQPEIANNPELYQEKVTEAFFSALPLMLKGDPVITIAPLSWKNSQGESALNLSLFLKDPATTKEAPQTLAQEVDRSVKSLDAKLTIPVDMATEFMTQVARKVIRKIKRKNWRNSKLKVHQQWGRCSVEGHHHHHH	not soluble
MAIVGQPNLRELFDDAPTPHIAHPPHTHRRDFYVATDGSYASDGAGLGVIIETRDGSRVLRRSVPDTAPDNNVAEYRALHLGLDTLAARTPPDASVGVLVDHDALAGDVNSAVLATQRRDYQPVRAFSAPRDARHHWRGIRARVTGFAEIRAAQVDSSRNPAHALANEPSQYAHVNDEPDRCLLPDATTSTEPQIPPPSRSDRPAGDLEHHHHHH	not soluble
MSLHYPFVTNDDIEWMLSICVEWRLPEIAKEIYTTLGNQMLSAHNIIESIANFSRAGKYELVKSYSWLLFEASCMEGQKLDDPVLNAIVSKNSPAEDDVIIPQDILDCVVTNSMRQTLAPYAVLSQFYELRDREDWGQALRLLLLLIEFPYLPKHYLVLLVAKFLYPIFLLDDKKLMDEDSVATVIEVIETKWDDADEKSSNLYETIIEADKSLPSSMATLLKNLRKKLNFKLCQAFMEGHHHHHH	not soluble
ESKSPIIQNVLSYITEHFSEGMSLKTLGNDFHINAVYLGQLFQKEMGEHFTDYLNRYRVNYAKEELLQTKDNLTIIAGKSGYTDMAYFYRQFKKHTGETPNRYRKIHQ	soluble
MGSDKIHHHHHHMETIKAIHTRHSVRAFKDDPIEPQLLTMIVTDAQQTPSWGNSQPWQVYIATGHALTNIKQHYATAAEQGIAEDADLAKVHRGDFSAFASQNMGHWVGTFRPVIDSDPTTYWDSRANLYRAPAIAYLVLDANPNSWSIYDLGAFSQTLMLAATARGVQSVPSYELVKYPAIVRNALGMPANKVVAMGIALGYEKPEKPLNQFRTDRVATPQVLHIIN	not soluble
GSRATVFKLGLFKSLFLCSFHDITRLFKNDKTTNQQWVLAVFGLAEVFFEASFELLKKQCSFLQMQKRSHEGGTCAVYLICFNTAKSRETVRNLMANMLNVREECLMLQPPKIRGLSAALFWFKSSLSPATLKHGALPEWIRAQTTLN	soluble
MNSFRWDIYFETGIEDVDDQHQYLVEFINKYGKLLTRNTISIADIQSALFELSRYAEFYFKEEENLMREVGIHHEHLQKHIQVHRTFMGDIVSMQSFINEDNRQSAEQLLDFLIHWLAYHILGIDQNMAKQIKAIERGVSPLEAYREQEQQANASTEP	soluble
GPGSMKVGNRDYDPCVKVSLELESLLQHHFQQRQHSKRILKDRLRKAELEIAYLQQSVSAYSEELRVERLKFDTLQRTMEDSKRNHAAELMEQDKIIRDRMCNVDTQARLLVVKTEECERRAQCLQKQEEELLNREKELRFYQASFEAGIMPAQRQIEAERVRMLRAREKAEELLEEARISALATEERRKKLEALHNLEMQFFALEKEEATQRIQIMRQEIFGLVGLISFRRTHVSAAEGDAAKRIRLLEEELASKKEVFELREKEVYLRYQREEQRMRDERKRIISIKEAMRQDYRLVLEGIRLFGNEYSTEPDQLQVDALKDLEKLLFSALDDHQLEITKKL	soluble
MFRPASIAVTAALCACALPALASETLNSRTDVLAALEAGYDVSVSTDLSRCTPEEGTPVSRTRGGRHIDAYRITEDGNVAFSGAHFTVANDGKPIQQFMRYQLRPDGSVRFTTYMYDLPGLQQRGPVLAYQCAFNEGARFHADLEHHHHHH	soluble
SATALSEEELDNEDYYSLLNVRREASSEELKAAYRRLCMLYHPDKHRDPELKSQAERLFNLVHQAYEVLSDPQTRAIYDIYGKRGLEMEGWEVVERRRTPAEIREEFERLQREREERRLQQRTNPKGTISVGVDATDLFDRYDEEYEDVSGSSFPQIEINKMHISQSIEAPLTATDTAILSGSLSTQNGNGGGSINFALRRVTSAKGWGELEFGAGDLQGPLFGLKLFRNLTPRCFVTTNCALQFSSRGIRPGLTTVLARNLDKNTVGYLQWRWGIQSAMNTSIVRDTKTSHFTVALQLGIPHSFALISYQHKFQDDDQTRVKGSLKAGFFGTVVEYGAERKISRHSVLGAAVSVGVPQGVSLKVKELEKQRESAATDVLQKKQEAESAVRLMQESVRRIIEAEESRMGLIIVNAWYGKFVNDKSRKSEKVKVIDVTVPLQCLVKDSKLILTEASKAGLPGFYDPCVGEEKNLKVLYQFRGVLHQVMVLDSEALRIPKQSHRIDTDG	soluble
MGSDKIHHHHHHMTNKTNAASLDIVGIGNAIVDVLTTTDDSFLKKLSFDKGSMTLIDEKKAKELYEMTTNRIQKSGGSVANSLACVAQLGGKAAFIGRVRDDKLGEIFTEEISTTGTIFKTPPSSVGPSTARCIIFVTPDAQRTMCTYLGASVLLEPKDIDLSLVREAKILYLEGYLWDNPAAKNAFIKAAEIAKNAGRKVALSLSDSFCVSRHRESFIKLVEEHIDILFANEDEITNLYETSSLSNALEKLKKKCDLAAITIGEKGSILISNGKEIKIDPFILGKAIDTTGAGDLYAGAFLKGYADGLKPELSAKIGSICAGQIVTQLGSRSNTDLLNLINSHLEA	not soluble
SEDKKKKRSPKPCLTQQAQAPGTLRRVPVPTSHSGSLALGLPHLPSPKQRAKFKRAGKEKCRPVLAGGGGGSAGTPLQHSFLTEVTDVYEMEGGLLNLLNDFHSGRLQAFGKECSFEQLEHVREMQEKLARLHFSLDVCGEEEDEEEEEDGVTEGLPEEQKKTMADRNLDQLLSNLEDLSNSIQKLHLAENAEPEDQPAA	soluble
MGSDKIHHHHHHMIQTPVIVTFANQKGGVGKTTLCVTFANYLVAKGVRVLVIDCDFQHSIMKCRKADIKKYGEEQLPYEVWSYEPNNKVEMTSLVEKLHNDPEIDVVLIDSPGSLKAEGLVPIFVNSDIIVVPFHYDLVTIPSTASFLLFLDRLRQAVGERMKAQLFIIPNLNDNRVGKRSELILWDNTRETFSNYGYVTGKIPRRADMERFSTIAALDMQYRYVSSVFDKIYFSIFDKTGPIREMELSGIQLTENLYPKSGKKKYQAETSTHIALDEAEDEEQENNSEHQHNQ	not soluble
MATIGTFKKSGNEFSGEIVTLSVQAKGVRIVPESNRSGDNAPSHRVYVGRAEIGAAWSKTSNEGREYLGLKLDDPSFTAPIYANLFDDEEGDTFSLIWSRAAKRNGD	not soluble
MRVISGEYGGRRLKALDGDNTRPTTDKVKESIFNMIGPYFDGGMALDLYSGSGGLAIEAVSRGMDKSICIEKNFAALKVIKENIAITKEPEKFEVRKMDANRALEQFYEEKLQFDLVLLDPPYAKQEIVSQLEKMLERQLLTNEAVIVCETDKTVKLPETIGTLKKTRETVYGITQVTIYRQEA	soluble
GSSHHHHHHSSGLVPRGSHMQTTNAVDLGNPDLYTTLERHARWRELAAEDAMVWSDPGSSPSGFWSVFSHRACAAVLAPSAPLTSEYGMMIGFDRDHPDNSGGRMMVVSEHEQHRKLRKLVGPLLSRAAARKLAERVRIEVGDVLGRVLDGEVCDAATAIGPRIPAAVVCEILGVPAEDEDMLIDLTNHAFGGEDELFDGMTPRQAHTEILVYFDELITARRKEPGDDLVSTLVTDDDLTIDDVLLNCDNVLIGGNETTRHAITGAVHALATVPGLLTALRDGSADVDTVVEEVLRWTSPAMHVLRVTTADVTINGRDLPSGTPVVAWLPAANRDPAEFDDPDTFLPGRKPNRHITFGHGMHHCLGSALARIELSVVLRVLAERVSRVDLEREPAWLRAIVVQGYRELPVRFTGR	soluble
MPRRHSIVYAVEYDGDIYAITGITHETRNYLYKYIVKEDKWIELYMYFNHVGKTFVCSCGDYILIIADAKYEYYPKSNTWNLFDMSTRNIEYYDMFTKDETPKCN	not soluble
MNFKPIKPKKISTQIAEQIRSSILAGEFTPGEKLPPERELAEMFGVSRPSVREALNILAAAGLVESYQGGGTIVKSLMDAASGPPLSEIIKVEQERALDVIEVRKCMEAWTAYYAAQRALPDDVRKLEGIVWNMEANLNGLKPSEDLDANFHIVIARSTHNVVWLHLMQTIFEAMKEFQRSVWRAVYLTEEDHRTLFAHHKAIFEAIRDKDCERARNAMLGHLTFAEKRSSIYVNQSRQDR	not soluble
